# Source: paper PMC5473807, “Distribution and kinetics of the Kv1.3-blocking peptide HsTX1[R14A] in experimental rats” (Scientific Reports, 2017)
# Read-outs that look alike come from different tables or passages of the source.
# Test: In vivo biodistribution by organ and tissue extraction
# Design: species or system male Wistar rats
# Conditions: male, Wistar, total radioactivity, rat, mean ± SD; for tissue uptake dose at 48 h / SUV at 48 h: 2880 min p.i.; for tissue uptake dose at 5 min / SUV at 5 min: 5 min p.i.; for tissue uptake dose at 1 h / SUV at 1 h: 60 min p.i.; for tissue uptake dose at 4 h / SUV at 4 h: 240 min p.i.; for tissue uptake dose at 24 h / SUV at 24 h: 1440 min p.i.
# Procedure: The present study includes data obtained from a total of 50 animals. Four animals (body weight 227 ± 10 g) for each time point were injected intravenously into a tail vein or subcutaneously with approximately 0.3 MBq ([…]) [^64Cu]Cu-NOTA-HsTX1[R14A] conjugate in 0.5 mL electrolyte solution E-153 (Serumwerk Bernburg, Germany). Animals were euthanised at 5, 60, 240, 1440 and 2880 min post-injection. Blood and the major organs were collected, weighed, and counted in a cross-calibrated γ-counter (Isomed 1000, Isomed GmbH, Dresden) and Wallac WIZARD Automatic Gamma Counter (PerkinElmer, Germany). The radioactivity of the tissue samples was decay-corrected and calibrated by comparing the counts in tissue with the counts in aliquots of the injected radiotracer that had been measured in the γ-counter at the same time. The activity in the selected organs was expressed as percent-injected dose per organ (% ID) and the activity concentration in tissues and organs as standardised uptake value (SUV). Values are quoted as mean ± standard error of mean (SEM) for each group of four animals.
# [1] = lung, iv, 0.3 MBq, i.v., n=4, read-out: Lung activity amount
# [2] = lung, iv, 0.3 MBq, i.v., n=8, read-out: Lung activity amount
# [3] = lung, iv, i.v., n=4, read-out: Lung SUV
# [4] = lung, iv, i.v., n=8, read-out: Lung SUV
# [5] = lung, sc, 0.3 MBq, s.c., n=4, read-out: Lung activity amount
# [6] = lung, sc, s.c., n=4, read-out: Lung SUV
# [7] = muscle, iv, i.v., n=4, read-out: Muscle SUV
# [8] = muscle, iv, i.v., n=8, read-out: Muscle SUV
# [9] = muscle, sc, s.c., n=4, read-out: Muscle SUV
# [10] = pancreas, iv, 0.3 MBq, i.v., n=4, read-out: Pancreas SUV
# [11] = pancreas, iv, 0.3 MBq, i.v., n=4, read-out: Pancreas activity amount
# [12] = pancreas, iv, 0.3 MBq, i.v., n=8, read-out: Pancreas SUV
# [13] = pancreas, iv, 0.3 MBq, i.v., n=8, read-out: Pancreas activity amount
# [14] = pancreas, sc, 0.3 MBq, s.c., n=4, read-out: Pancreas SUV
# [15] = pancreas, sc, 0.3 MBq, s.c., n=4, read-out: Pancreas activity amount
# [16] = spleen, iv, 0.3 MBq, i.v., n=4, read-out: Spleen SUV
# [17] = spleen, iv, 0.3 MBq, i.v., n=4, read-out: Spleen activity amount
# [18] = spleen, iv, 0.3 MBq, i.v., n=8, read-out: Spleen SUV
# [19] = spleen, iv, 0.3 MBq, i.v., n=8, read-out: Spleen activity amount
# [20] = spleen, sc, 0.3 MBq, s.c., n=4, read-out: Spleen SUV
# [21] = spleen, sc, 0.3 MBq, s.c., n=4, read-out: Spleen activity amount
# [22] = stomach, iv, 0.3 MBq, i.v., n=4, read-out: Stomach activity amount
# [23] = stomach, iv, 0.3 MBq, i.v., n=8, read-out: Stomach activity amount
# [24] = stomach, sc, 0.3 MBq, s.c., n=4, read-out: Stomach activity amount
# [25] = testes, iv, 0.3 MBq, i.v., n=4, read-out: Testes SUV
smiles,measurement,setting,value
"CSCC[C@@H]1NC(=O)[C@@H]2CSSC[C@H](NC(=O)[C@H](CO)NC(=O)[C@H](C)NC(=O)COCCOCCNC(=O)CN3CCN(CC(=O)O)CCN(CC(=O)O)CC3)C(=O)N[C@@H](CCCNC(=N)N)C(=O)N[C@@H]([C@@H](C)O)C(=O)N3CCC[C@H]3C(=O)N[C@@H](CCCCN)C(=O)N[C@@H](CC(=O)O)C(=O)N[C@H]3CSSC[C@H](NC(=O)[C@H](CCCCN)NC(=O)[C@H](CCCNC(=N)N)NC(=O)[C@H](CC(N)=O)NC1=O)C(=O)N[C@@H](CCCCN)C(=O)N[C@H]1CSSC[C@H](NC(=O)[C@@H]4CCCN4C(=O)[C@H](CC(=O)O)NC(=O)[C@H](C)NC3=O)C(=O)N[C@@H](C)C(=O)N[C@@H](CCCCN)C(=O)N[C@@H](CCC(=O)O)C(=O)N[C@@H]([C@@H](C)O)C(=O)NCC(=O)N[C@@H](CSSC[C@@H](C(N)=O)NC(=O)[C@H](CCCNC(=N)N)NC(=O)[C@H](CC(N)=O)NC1=O)C(=O)N1CCC[C@H]1C(=O)N[C@@H](Cc1ccc(O)cc1)C(=O)NCC(=O)N[C@@H](CCCCN)C(=O)N2 [[^64Cu]Cu-NOTA-HsTX1[R14A], metal not drawn]",tissue uptake dose at 48 h,"liver, sc, 0.3 MBq, s.c., n=4, read-out: Liver activity amount",7.85 ± 0.49 %ID
same,tissue uptake dose at 5 min,[1],1.44 ± 0.18 %ID
same,tissue uptake dose at 1 h,[2],1.24 ± 0.3 %ID
same,tissue uptake dose at 4 h,[1],0.92 ± 0.12 %ID
same,tissue uptake dose at 24 h,[2],0.5 ± 0.05 %ID
same,tissue uptake dose at 48 h,[1],0.46 ± 0.06 %ID
same,SUV at 5 min,[3],2.87 ± 0.32 SUV
same,SUV at 1 h,[4],1.98 ± 0.17 SUV
same,SUV at 4 h,[3],1.24 ± 0.1 SUV
same,SUV at 24 h,[4],0.78 ± 0.13 SUV
same,SUV at 48 h,[3],0.55 ± 0.03 SUV
same,tissue uptake dose at 1 h,[5],1.64 ± 0.24 %ID
same,tissue uptake dose at 4 h,[5],1.04 ± 0.08 %ID
same,tissue uptake dose at 24 h,[5],0.49 ± 0.02 %ID
same,tissue uptake dose at 48 h,[5],0.33 ± 0.01 %ID
same,SUV at 1 h,[6],2.1 ± 0.33 SUV
same,SUV at 4 h,[6],1.32 ± 0.12 SUV
same,SUV at 24 h,[6],0.63 ± 0.02 SUV
same,SUV at 48 h,[6],0.47 ± 0.01 SUV
same,SUV at 5 min,[7],0.43 ± 0.03 SUV
same,SUV at 1 h,[8],0.17 ± 0.06 SUV
same,SUV at 4 h,[7],0.07 SUV
same,SUV at 24 h,[8],0.18 ± 0.02 SUV
same,SUV at 48 h,[7],0.19 ± 0.01 SUV
same,SUV at 1 h,[9],0.15 ± 0.02 SUV
same,SUV at 4 h,[9],0.08 ± 0.01 SUV
same,SUV at 24 h,[9],0.19 ± 0.01 SUV
same,SUV at 48 h,[9],0.16 SUV
same,SUV at 5 min,[10],0.64 ± 0.09 SUV
same,tissue uptake dose at 5 min,[11],0.11 ± 0.03 %ID
same,SUV at 1 h,[12],0.3 ± 0.04 SUV
same,tissue uptake dose at 1 h,[13],0.06 ± 0.02 %ID
same,SUV at 4 h,[10],0.24 ± 0.01 SUV
same,tissue uptake dose at 4 h,[11],0.08 %ID
same,SUV at 24 h,[12],0.62 ± 0.16 SUV
same,tissue uptake dose at 24 h,[13],0.2 ± 0.16 %ID
same,SUV at 48 h,[10],0.32 ± 0.01 SUV
same,tissue uptake dose at 48 h,[11],0.08 ± 0.01 %ID
same,SUV at 1 h,[14],0.29 ± 0.03 SUV
same,tissue uptake dose at 1 h,[15],0.11 ± 0.03 %ID
same,SUV at 4 h,[14],0.25 SUV
same,tissue uptake dose at 4 h,[15],0.08 ± 0.01 %ID
same,SUV at 24 h,[14],0.48 ± 0.02 SUV
same,tissue uptake dose at 24 h,[15],0.15 ± 0.01 %ID
same,SUV at 48 h,[14],0.28 ± 0.02 SUV
same,tissue uptake dose at 48 h,[15],0.07 ± 0.01 %ID
same,SUV at 5 min,[16],4.06 ± 0.6 SUV
same,tissue uptake dose at 5 min,[17],0.83 ± 0.12 %ID
same,SUV at 1 h,[18],3.42 ± 0.42 SUV
same,tissue uptake dose at 1 h,[19],0.79 ± 0.11 %ID
same,SUV at 4 h,[16],2.4 ± 0.1 SUV
same,tissue uptake dose at 4 h,[17],0.67 ± 0.06 %ID
same,SUV at 24 h,[18],0.83 ± 0.26 SUV
same,tissue uptake dose at 24 h,[19],0.18 ± 0.04 %ID
same,SUV at 48 h,[16],0.56 ± 0.05 SUV
same,tissue uptake dose at 48 h,[17],0.16 ± 0.01 %ID
same,SUV at 1 h,[20],4 ± 0.21 SUV
same,tissue uptake dose at 1 h,[21],1.08 ± 0.03 %ID
same,SUV at 4 h,[20],2.84 ± 0.25 SUV
same,tissue uptake dose at 4 h,[21],0.75 ± 0.03 %ID
same,SUV at 24 h,[20],0.59 ± 0.03 SUV
same,tissue uptake dose at 24 h,[21],0.15 %ID
same,SUV at 48 h,[20],0.47 ± 0.04 SUV
same,tissue uptake dose at 48 h,[21],0.15 ± 0.01 %ID
same,tissue uptake dose at 5 min,[22],0.67 ± 0.09 %ID
same,tissue uptake dose at 1 h,[23],1.28 ± 1.2 %ID
same,tissue uptake dose at 4 h,[22],1.52 ± 1.06 %ID
same,tissue uptake dose at 24 h,[23],1.56 ± 1.04 %ID
same,tissue uptake dose at 48 h,[22],1.46 ± 0.37 %ID
same,tissue uptake dose at 1 h,[24],1.14 ± 0.45 %ID
same,tissue uptake dose at 4 h,[24],0.6 ± 0.03 %ID
same,tissue uptake dose at 24 h,[24],0.82 ± 0.07 %ID
same,tissue uptake dose at 48 h,[24],1.72 ± 1.02 %ID
same,SUV at 5 min,[25],0.24 ± 0.03 SUV
same,tissue uptake dose at 5 min,"testes, iv, 0.3 MBq, i.v., n=4, read-out: Testes activity amount",0.27 ± 0.05 %ID
same,SUV at 1 h,"testes, iv, 0.3 MBq, i.v., n=8, read-out: Testes SUV",0.16 ± 0.01 SUV
same,tissue uptake dose at 1 h,"testes, iv, 0.3 MBq, i.v., n=8, read-out: Testes activity amount",0.23 ± 0.02 %ID
same,SUV at 4 h,[25],0.13 ± 0.01 SUV
